From patent US5851983A, “Elastase inhibitory polypeptide and process for production thereof by recombinant gene technology” (Teijin Limited, priority 1987, dated 1998)

Target: T1, Bovine spleen trypsin (Bos taurus, UniProt P00760)
T1 construct: purchased Sigma
T1 sequence (P00760 24-246): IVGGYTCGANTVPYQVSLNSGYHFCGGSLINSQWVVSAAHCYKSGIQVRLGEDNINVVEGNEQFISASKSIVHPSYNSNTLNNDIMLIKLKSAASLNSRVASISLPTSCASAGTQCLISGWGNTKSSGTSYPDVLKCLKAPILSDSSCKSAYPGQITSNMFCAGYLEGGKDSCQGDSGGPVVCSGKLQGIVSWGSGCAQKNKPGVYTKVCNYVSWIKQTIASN
Assay: Assay for trypsin inhibitor activity (Example 24)
Assay type: biochemical
Conditions: enzyme 2 × 10^-7 M, substrate 1.0 × 10^-3 M
Procedure: The following assay method was used.
Buffer: 0.1M (2-hydroxyethyl)piperazine-N'-2-ethansulfonic acid (HEPES), 0.5M NaCl, pH 7.5.
Enzyme concentration: the following enzyme was dissolved in the above-mentioned buffer to a concentration 9 times that shown in Table 12.
B. Bovine spleen trypsin (Sigma)
Substrate solution: for the enzymes A, B, C, D and E, the following substrate a, b, c, d or e, respectively, was dissolved in a solution of DMSO+the above-mentioned buffer (1:9) (note, final concentration of DMSO was 10% in the buffer) to a concentration of 9 times that shown in Table 12. […]
To wells of an ELISA 96-well microtiter plate, were added 120 μl of the buffer and the 20 μl of a sample solution of (Arg^59 -Ala^107) SLPI obtained in Example 23, followed by 20 μl of the enzyme solution. The mixture was reacted at 37° C. for 10 minutes. Next, 20 μl of the substrate was added, and developed at 37° C. The developed color was measured by absorption at 405 nm.
As a control the same procedure was carried out using SLPI.

IC50: 330 nM
B1: SLPI: Human secretory leukoprotease inhibitor; recombinant SLPI of Reference Example 1 used as control (protein)
chain: SGKSFKAGVCPPKKSAQCLRYKKPECQSDWQCPGKKRCCPDTCGIKCLDPVDTPNPTRRKPGKCPVTYGQCLMLNPPNFCEMDGQCKRDLKCCMGMCGKSCVSPVKA
